Ends that are not written are not given here.
biological target: Opr86 outer membrane protein on P. stutzeri cells (P. stutzeri); experiment: fluorometry at 525 nm of 1x10^9 P. stutzeri cells labeled with peptide-QD525 conjugate

| Binder | Fluorescence (RFU) |
| --- | --- |
| MHNLNLL (conjugated to a quantum dot (QD525)) [OPP2 peptide-quantum dot conjugate] | 1850 RFU |
| PRIRKSH (also: conjugated to quantum dot) [OPP1 peptide-quantum dot conjugate] | 12300 RFU |
| IITMKRR (conjugated to a quantum dot (QD525)) [OPP5 peptide-quantum dot conjugate] | 4410 RFU |
| LRPLMNR (conjugated to a quantum dot (QD525)) [OPP4 peptide-quantum dot conjugate] | 1380 RFU |
| LPSTIHR (conjugated to a quantum dot (QD525)) [OPP3 peptide-quantum dot conjugate] | 2250 RFU |
| RKKSRIR (conjugated to a quantum dot (QD525)) [OPP6 peptide-quantum dot conjugate] | 4130 RFU |

biological target: OprF outer membrane protein on P. stutzeri cells (P. stutzeri); experiment: as above

| Binder | Fluorescence (RFU) |
| --- | --- |
| RRSNSQL (conjugated to a quantum dot (QD525)) [OBP4 peptide-quantum dot conjugate] | 4520 RFU |
| QITLRST (conjugated to a quantum dot (QD525)) [OBP7 peptide-quantum dot conjugate] | 2620 RFU |
| NMTNPPP (conjugated to a quantum dot (QD525)) [OBP6 peptide-quantum dot conjugate] | 2080 RFU |
| QMLLRLP (conjugated to a quantum dot (QD525)) [OBP9 peptide-quantum dot conjugate] | 3340 RFU |

biological target: Opr86 outer membrane protein on A. venetianus cells (A. venetianus); experiment: fluorometry of cells recovered from spiked 1 L Jet A fuel and labeled with 1.5 uM peptide-QD545, at the LOD of 5 x 10^5 CFU

| Binder | Fluorescence (RFU) |
| --- | --- |
| PRIRKSH (also: conjugated to quantum dot) [OPP1 peptide-quantum dot conjugate] | 773 RFU |

biological target: Opr86 outer membrane protein on P. stutzeri cells (P. stutzeri); experiment: as above

| Binder | Fluorescence (RFU) |
| --- | --- |
| PRIRKSH (also: conjugated to quantum dot) [OPP1 peptide-quantum dot conjugate] | 820 RFU |
